US12674167B2, “Aptamer specifically binding to cancer stem cells, and use thereof” (HiCELL Tech, priority 2019, dated 2026)
[NapdU] = 5-(N-naphthylcarboxyamide)-2'-deoxyuridine

B1: AT4: 76-mer CD166 aptamer, N = NapdU: TCAGCCGCCAGCCAGTTCCNNCNAGAGNCANGCACGNNANCGGACCNGNCGGCGAANGGACCANANCACCACAGAG (nucleic acid)
DNA: TCAGCCGCCAGCCAGTTCCUUCUAGAGUCAUGCACGUUAUCGGACCUGUCGGCGAAUGGACCAUAUCACCACAGAG
modifications: DNA, [NapdU] at 20, 21, 23, 28, 31, 37, 38, 40, 47, 49, 57, 64, 66, backbone not given here
B2: AT5: 76-mer CD166 aptamer, N = NapdU: TCAGCCGCCAGCCAGTTCANNNGANAAAGCNCCGNNANCGGGCCCCNNGNAGAGNCANGACCAGAGCACCACAGAG (nucleic acid)
DNA: TCAGCCGCCAGCCAGTTCAUUUGAUAAAGCUCCGUUAUCGGGCCCCUUGUAGAGUCAUGACCAGAGCACCACAGAG
modifications: DNA, [NapdU] at 20, 21, 22, 25, 31, 35, 36, 38, 47, 48, 50, 55, 58, backbone not given here

Experiments:
[1] = tested on: ovarian cancer stem cell line A2780-SP cells; experiment: Affinity of CD166 aptamer to ovarian cancer stem cells by flow cytometry (FACS); assay type: binding; conditions: for affinity: as found in Example 8 (FACS)
Description: It was confirmed whether the CD166 aptamer constructed in Example 7 recognized ovarian cancer cells and ovarian cancer stem cells. The following experiment was performed to analyze the interaction between the CD166 aptamer and the ovarian cancer cell line A2780 cells. First, each of the CD166 aptamer (AT-1, AT-2, AT-3, AT-4, AT-5 and AT-6) was dissolved in sterile tertiary water and then heated at 95° C. for 5 minutes. After heating, it was cooled to 25° C. The aptamer was added to the ovarian cancer cell line A2780 cells at a concentration of 500 nM, and then the cells were cultured at room temperature and stained. Thereafter, the cells reacted with the CD166 aptamer were analyzed using a flow cytometer (fluorescence activated cell sorter, FACS), and the results are shown in FIG. 18.
In addition, in the same manner as described above, the ovarian cancer stem cell line A2780-SP cells were reacted with the CD166 aptamer, and then FACS was performed, and the results are shown in FIG. 19.
The affinity of the CD166 aptamer AT-5 and the CD166 FACS antibody (PE Mouse Anti-Human CD166, Cat:559263, BD Pharminggen) as the control to the ovarian cancer stem cell line A2780-SP cells was compared.

[2] = tested on: CD166 expressing cells isolated from ovarian cancer stem cells; experiment: Cell adhesion experiment, CD166 expressing ovarian cancer stem cells; assay type: cell-based; conditions: aptamer 500 nM, 1 hour, collagen-coated plate, FIG. 21
Description: The effect of the CD166 aptamer on cell adhesion ability was confirmed using the CD166 aptamers AT3, AT4 and AT5. Specifically, CD166 expressing cells were isolated from ovarian cancer stem cells using the CD166 FACS antibody. Cell adhesion experiment of the CD166 aptamer was performed using the isolated cells. First, […] blocked with 20 μg/ml of collagen for 1 hour. After blocking, 0.1% bovine serum albumin (BSA) was added and incubated for 1 hour to limit non-specific binding. The isolated cells were each exposed to the CD166 aptamer (500 nM) for 1 hour and then fixed with 4% formaldehyde. The fixed cells were stained with hoest33342.

[3] = tested on: CD166-high cells of ovarian cancer stem cell line A2780-SP; experiment: Tumor formation from aptamer-treated A2780-SP cells inoculated subcutaneously; assay type: in vivo, nude mice
Description: The effect of the CD166 aptamer AT-5 on tumor formation was confirmed. Specifically, cells in which the expression CD166 is high were isolated from the ovarian cancer stem cell line A2780-SP using a flow cytometer (ARIA3). The isolated cells were reacted with the CD166 aptamer AT-5 for 1 hour, respectively. The cells reacted with the aptamer (1×10^5 cells) were inoculated subcutaneously into nude mice. At this time, the aptamer-untreated cells were inoculated on the left side of nude mice, and the CD166 aptamer AT-5-treated cells were inoculated on the right side of nude mice. After inoculation, the tumor formation size was measured from the 18th day. Nude mice were euthanized on the 38th day of inoculation. Tumors were isolated from nude mice, and finally, the weight and size of the tumors were measured. The results of observation of the isolated tumors are shown in FIG. 26, the results of measuring the size of the tumors are shown in FIG. 27, and the results of measuring the weight of the tumors are shown in FIG. 28, respectively.

[4] = tested on: patient-derived ovarian cancer stem cells; experiment: Affinity of CD166 aptamer to patient-derived ovarian cancer stem cells (FACS); assay type: binding; conditions: FIG. 36A
[5] = tested on: focal adhesion signaling pathway in patient-derived ovarian cancer stem cells; experiment: Focal adhesion signaling pathway by Western blotting, patient-derived ovarian cancer stem cells; assay type: cell-based; conditions: aptamer 1 hour, FIG. 39
Source text: (§1) CD166 expression was inhibited using siRNA in the ovarian cancer stem cell line A2780-SP, and the focal adhesion signaling pathway was confirmed in CD166 expression-inhibited cells through Western blotting. Specifically, in order to inhibit the expression of CD166, the control (si Control) (5′-UUCUCCGAACGUGUCACGUTT-3′ (SEQ ID NO: 23); 5′-ACGUGACACGUUCGGAGAATT-3′ (SEQ ID NO: 24) and si CD166 (5′-AAGCCCGAUGGCUCCCCAGUAUU-3′ (SEQ ID NO: 25); 5′-AAUACUGGGGAGCCAUCGGGCUU-3′ (SEQ ID NO: 26) were constructed. The expression of CD166 was inhibited by reacting the constructed siRNA and the ovarian cancer stem cell line A2780-SP cells, and the cells were cultured after inhibition of expression. After culturing for 48 hours, the cells were collected, and protein expression of FAK, SRC, Paxillin and CD44, which are known as major genes of the focal adhesion signaling pathway, was confirmed through Western blotting. Antibodies against CD166 (ab109215, Abcam), CD44 (5640S, Cell Signaling Technology), p-PAXILLIN (2541S, Cell Signaling Technology), p-SRC (2101S, Cell Signaling Technology), p-FAK (3284S, Cell Signaling Technology), FAK (3285S, Cell Signaling Technology) and GAPDH (MAB374, EMD Milliore Corp, Billerica, MA) were used as primary antibodies. The results of confirming the focal adhesion signaling pathway inhibitory activity in CD166 expression-inhibited cells are shown in FIG. 14.
The patient-derived ovarian cancer stem cells were reacted with the CD166 aptamers AT-3 and AT-5 for 1 hour, respectively, and then the focal adhesion signaling pathway was confirmed in CD166 expression-inhibited cells through Western blotting. The Western blotting was performed in the same manner as in Example 5.

[6] = tested on: focal adhesion signaling pathway in mesenchymal stem cells; experiment: Focal adhesion signaling pathway by Western blotting, mesenchymal stem cells; assay type: cell-based; conditions: aptamer 1 hour, normal stem cells, FIG. 44
Source text: as §1
The mesenchymal stem cells were reacted with the CD166 aptamer AT-5 for 1 hour, respectively, and then the focal adhesion signaling pathway was confirmed in CD166 expression-inhibited cells through Western blotting. The Western blotting was performed in the same manner as in Example 5. In addition, the focal adhesion signaling pathway by CD166 expression inhibition in the mesenchymal stem cells was confirmed by the method of Example 4, and the results are shown in FIG. 44.

Row | Molecule | affinity [1] | cell adhesion [2] | specificity of binding to ovarian cancer stem cells among the CD166 aptamers ([1]; 500 nM, FACS, FIG. 19) | tumor formation ([3]; cells pre-reacted with aptamer 1 hour, 1×10^5 cells subcutaneous, nude mice, FIG. 26) | size of the tumor ([3]; vs aptamer untreated group, day 18 to 38, FIG. 27) | weight of the tumor ([3]; vs control, day 38, FIG. 28) | interaction with patient-derived ovarian cancer stem cells, signal intensity [4] | expression of p-PAXILLIN [5] | expression of p-SRC [5] | expression of the p-FAK Y925 site [5] | expression of p-PAXILLIN [6] | expression of p-SRC [6] | expression of the p-FAK Y925 site [6]
1 | B1 | high affinity | reduced |  |  |  |  |  |  |  |  |  |  | 
2 | B2 | high affinity | reduced | most specifically binds | inhibited | smaller | reduced significantly | the signal intensity is high | inhibited | inhibited | reduced | not affected | not affected | not affected
